From the nanobody polyreactivity screen of Harvey et al. (2022)

Experiment: yeast display, Sf9 membrane polyspecificity reagent, FACS + sequencing; frameworks hold sequencing errors
Outline: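 Sorting gates, low and high (top ~1%), were placed on anti-HA fluorescence to track expression and on streptavidin fluorescence to track reagent binding. A clone's polyreactivity label is taken from the gate it came out of. The reagent was 10% biotinylated, detergent-solubilized Sf9 membrane, applied for 1 hour at 4 °C to galactose-induced yeast display cells.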
For “QVQLVESGGGLVQAGGSLRLSCAASGFTFRWYTMGWYRQAPGKERELVAAISWSGTSTYYADSVKGRFTISRDNAKNIVYLQMNSLKPEDTAVYYCAAADFYYTGADDYWGQGTQVTVSS”, the “polyreactivity (PSR sort gate)” value was “high polyreactivity”.
For “QVQLVESGGGLVQAGGSLRLSCAASGFTFRYNAMGWYRQAPGKEREVVAAITSGGNTNYADSVKGRFTISRDNAKNTFYLQMNSLKPEDTAVYYCNTAWRDYVARLGGVGYDYWGQGTQVTVSS”, the “polyreactivity (PSR sort gate)” value was “high polyreactivity”.
For “QVQLVESGGGLVQAGGSLRLSCAASGFTFRYYAMGRSRQAPGKERELVAAITGSGVNTYYADSVKGRFTISRDNAKNTVYLQMNSLKPEDTAVYYCAAESESDPLFDRYYWGQGTQVTVSS”, the “polyreactivity (PSR sort gate)” value was “high polyreactivity”.
In the case of “QVQLVESGGGLVQAGGSLRLSCAASGFTFRYYAMGWSRQAAGKERELVATITGSGGSTYYADSVKGRFTISRDNAKNTVYLQMNSLKPEDTAVYYCNTVWYSDVRYTRFYYWGQGTQVTVSS”, the “polyreactivity (PSR sort gate)” value is reported as “high polyreactivity”.
For “QVQLVESGGGLVQAGGSLRLSCAASGFTFRYYAMGWYRPAPGKERELVAGISWSGSRTYYADSVKGRFTISRDSAKNTVYLQMNSLKPEDTAVYYCAKVNSYGPVPDRYDYWGQGTQVTVSS”, the “polyreactivity (PSR sort gate)” value was “high polyreactivity”.
In the case of “QVQLVESGGGLVQAGGSLRLSCAASGFTFRYYAMGWYRQAPGKEREFVAAITYNGVSTYYADSVKGRFTISRDNAKNTVYLQMNSLKPEDTAVYYCAAGWYYYARPRVYNAREYYYWGQGTQVTVSS”, the “polyreactivity (PSR sort gate)” value is reported as “high polyreactivity”.
With “QVQLVESGGGLVQAGGSLRLSCAASGFTFRYYAMGWYRQAPGKERELVAAISAGGSTYYADSVKGRFTISRDNAKNTVYLQMNSLKQEDTAVYYCTARYQGFVITYYYWGQGTQVTVSS” the “polyreactivity (PSR sort gate)” value was “high polyreactivity”.
In the case of “QVQLVESGGGLVQAGGSLRLSCAASGFTFRYYAMGWYRQAPGKERELVAAITRRSGSTYYADSVKGRFTISRDNAKNTVYLQMNSLKPEDTAVYYCAARASTIMGSWGQGTQVTVSS”, the “polyreactivity (PSR sort gate)” value is reported as “high polyreactivity”.
For “QVQLVESGGGLVQAGGSLRLSCAASGFTFRYYAMGWYRQAPGKERELVATITGYGGSTYYADSVKGRFTISRDNAKNTVYLQMNSLKPEDTAVYYCNTVWYTDVRYTRFYYWGQGTQVTVSS”, the “polyreactivity (PSR sort gate)” value was “high polyreactivity”.
In the case of “QVQLVESGGGLVQAGGSLRLSCAASGFTFRYYAMGWYRQEPGKERELVARISSGGSTNYADSVKGRFTISRDNAKNTVYLQMNSLKPEDTSVKYCAARLDHWLIYAYDYWGQGTQVTVSS”, the “polyreactivity (PSR sort gate)” value is reported as “high polyreactivity”.
With “QVQLVESGGGLVQAGGSLRLSCAASGFTFRYYTMGWYRQAPGKERELVAAITSSGGNTYYADSVKGRFTISRDNAKYTVYLQMNSLKPEDTAVYYCAADGRYYAVFRYDYWGQGTQVTVSS” the “polyreactivity (PSR sort gate)” value was “low polyreactivity”.
For “QVQLVESGGGLVQAGGSLRLSCAASGFTFSAYAMGWYRPAPGKERELVAAISWSGSRTYYADSVKGRFTISRDNAKNTVYLQMNSLKQEDTEVYYCAKEPYDTFGFYEYDYWGQGTQVTVSS”, the “polyreactivity (PSR sort gate)” value was “low polyreactivity”.
In the case of “QVQLVESGGGLVQAGGSLRLSCAASGFTFSAYDMGWYRQAPGKERELVAAISWSGGRTYYADSVKGRFTISRDNAKNTVYLQMNSLKPEDTAVYYCNAASLRYSYTLFDSWGQGTQVTVSS”, the “polyreactivity (PSR sort gate)” value is reported as “high polyreactivity”.
In the case of “QVQLVESGGGLVQAGGSLRLSCAASGFTFSAYTMGWYRQAPGKERELVAAINWSGANTYYADSVKGRFTISRDNAKNTVYLQMNSLKPEDTAVYYCNAEDDYTYDLSFGGYKYDYWGQGTQVTVSS”, the “polyreactivity (PSR sort gate)” value is reported as “low polyreactivity”.
For “QVQLVESGGGLVQAGGSLRLSCAASGFTFSDYAMGWYRQAPGKERELVAAISTRGSSTYYADSVKGRFTISRDNAKNTVYLQMNSLKPEDTAVYYCNAVGSYSGYYYWGQGTQVTVSS”, the “polyreactivity (PSR sort gate)” value was “high polyreactivity”.
In the case of “QVQLVESGGGLVQAGGSLRLSCAASGFTFSENTMGWYRQAPGKERELVADIDSGGSTYYADSVKGRFTISRDNAKNTVYLQMKRLKPEDTAVYYCAKDYHVVGGPTFLFEYDYWGQGSQVTVSS”, the “polyreactivity (PSR sort gate)” value is reported as “low polyreactivity”.
In the case of “QVQLVESGGGLVQAGGSLRLSCAASGFTFSFYAMGWYRQAPGKERELVAGISKRGGSTYYADSVKGRFTISRDNAKNTVYFLMNSLNPEDTAVYYCAARWYARSLTRFNYWGQGTQVTVSS”, the “polyreactivity (PSR sort gate)” value is reported as “high polyreactivity”.
In the case of “QVQLVESGGGLVQAGGSLRLSCAASGFTFSFYAMGWYRQAPGKERELVAVISRSGGGTYYADSVKGRFTISRDNAKHTVYLQMNSLKPEDTAVYYCAARLGNRRYDYWGQGTQVTVSS”, the “polyreactivity (PSR sort gate)” value is reported as “high polyreactivity”.
In the case of “QVQLVESGGGLVQAGGSLRLSCAASGFTFSFYSMGWSRQAPGKERELVAAITSRGTSTYYADSVKGRFTISRDNAKNTVYLQMNSLKPEDTAVYYCAKLLPRGQWPYDYWGQGTQVTVSS”, the “polyreactivity (PSR sort gate)” value is reported as “high polyreactivity”.
In the case of “QVQLVESGGGLVQAGGSLRLSCAASGFTFSGNAMGWYRQAPGKERELVAAITTTGVRTYYADSVKGRFTISRDNAKNTVYLQMNSLKPEDTAVYYCNKKRTQRVPVRYDYWGQGTQVTVSS”, the “polyreactivity (PSR sort gate)” value is reported as “high polyreactivity”.
For “QVQLVESGGGLVQAGGSLRLSCAASGFTFSGYAMGWYRQAPGKERELVAVIRGRGGRTYYADSVKGRFTISRDNAKNTVYLQMNSLKPEDTAVYYCAARRDAYYYVPNRFDYWGQGTQVTVSS”, the “polyreactivity (PSR sort gate)” value was “high polyreactivity”.
For “QVQLVESGGGLVQAGGSLRLSCAASGFTFSLYAMGWYRQAPGKDRELVASISRSGGSTYYADSVKGRFTISRDNAKYTVYIQMYSLKPEDTAVYYCAARWRPYKYDSWGQGTQVTVSS”, the “polyreactivity (PSR sort gate)” value was “high polyreactivity”.
For “QVQLVESGGGLVQAGGSLRLSCAASGFTFSLYAMGWYRQAPGKERELVASISSRGGSTYYADSVKGRFTISRDNAKNTVYLQMNSLKPEDTAVYYCNAGSVTRAWWGYWPFNYWGQGTQVTVSS”, the “polyreactivity (PSR sort gate)” value was “low polyreactivity”.
With “QVQLVESGGGLVQAGGSLRLSCAASGFTFSNNVMGWYRQAPGKERELVADITDSGGDTYYADSVKGRFTISRDNAKNTVYLQMNSLKPEDTAVYYCAARPQHFDLDLAYSGFDYWGQGTQVTVSS” the “polyreactivity (PSR sort gate)” value was “high polyreactivity”.
With “QVQLVESGGGLVQAGGSLRLSCAASGFTFSNYAMGWYRQAPGKEREFVAAISGTGGSTYYADSVKGRFTISRDNAKNTVYLQMNSLKPEDTAVYYCNARERVSRQYTFDYWGQGTQVTVSS” the “polyreactivity (PSR sort gate)” value was “high polyreactivity”.
For “QVQLVESGGGLVQAGGSLRLSCAASGFTFSPNAMGWYRQAPGKERELVAAISKRGASTYYADSVKGRFTISRDNAKNTVYLQMNSLKPEDTAVYYCNVGASARKPYDYWGQGTQVTVSS”, the “polyreactivity (PSR sort gate)” value was “high polyreactivity”.
With “QVQLVESGGGLVQAGGSLRLSCAASGFTFSPYTMGSYRQAPGKERELVAGITSRGGSTYYADSVKGRFTISRDTAKNTVYLQMNILKPEDSAVYYCAARSPGYYRIVWYDYWGQGTQVTVSS” the “polyreactivity (PSR sort gate)” value was “high polyreactivity”.
With “QVQLVESGGGLVQAGGSLRLSCAASGFTFSRNDMGWYRQAPGKERELVASITTSGGGTYYADSVKGRFTISRDKAKNTVYLQMNSLKPEDTAVYYCAAEYYSIRYGPHSIEVYGMDYWGQGTQVTVSS” the “polyreactivity (PSR sort gate)” value was “low polyreactivity”.
For “QVQLVESGGGLVQAGGSLRLSCAASGFTFSRNGMGWYRLAPGKERELVADITLSGASTYYADSVKGRFTISRDNAKNTVYLQMKSLKPEDTAVYYCAADPYHWRWGWRHDYWGQGTQVTVSS”, the “polyreactivity (PSR sort gate)” value was “low polyreactivity”.
In the case of “QVQLVESGGGLVQAGGSLRLSCAASGFTFSRNTMGWYRQAPGKERELVAAITWRGGSTYYADSVKGRFTISRDNAKNTVYLQMNSLKPEDTAVYYCAASSPNLEFDYWGQGTQVTVSS”, the “polyreactivity (PSR sort gate)” value is reported as “high polyreactivity”.
